The results in this text go back to US12710427B2, “Anti-human neurotensin receptor 1 antibody and use thereof” (National Health Research Institutes, priority 2020, dated 2026).

Test [1] has as its system A549. The test can be described thus: In vitro cell cytotoxicity assay (CellTiter-Glo). In kind it is cell-based. As for the experimental part:
(§1) The number of living cells were determined using the CellTiter-Glo® Luminescent Cell Viability Assay (Promega G7571). Cells were plated in 96-well opaque Costar plates (Cat number 136101). In brief, 500-2500 cells in 90 μL media were added to each well in quadruplicate and allowed to adhere for 16 hours. Anti-NTSR1 (dose range: 0-500 nM), anti-NTSR1-MMAE (dose range: 0-500 nM) or Paclitaxel (dose range: 0-100 nM) were added in […] 72-120 hours, medium was removed, and 200 μL of CellTiter-Glo® viability reagent contain culture medium (1:1) was added to each well and placed on an orbital shaker in the dark for 2 minutes. The plate was allowed to sit at RT for 10 minutes before being read on a GloMax® Explorer Multimode Microplate Reader (GM3500).
(Cellular ATP, detected with luciferase, serves as a proxy for viable cell number.)

For test [2], the system named is PC-3. The test can be described thus: In vitro cell cytotoxicity assay (CellTiter-Glo). In kind it is cell-based. The procedure: as §1
The target in test [3] is T1, NTSR1 on A549 cells (Homo sapiens, UniProt P30989).
T1 construct: endogenous in cells; host or cells: A549 (NSCLC)
T1 sequence (P30989 whole entry): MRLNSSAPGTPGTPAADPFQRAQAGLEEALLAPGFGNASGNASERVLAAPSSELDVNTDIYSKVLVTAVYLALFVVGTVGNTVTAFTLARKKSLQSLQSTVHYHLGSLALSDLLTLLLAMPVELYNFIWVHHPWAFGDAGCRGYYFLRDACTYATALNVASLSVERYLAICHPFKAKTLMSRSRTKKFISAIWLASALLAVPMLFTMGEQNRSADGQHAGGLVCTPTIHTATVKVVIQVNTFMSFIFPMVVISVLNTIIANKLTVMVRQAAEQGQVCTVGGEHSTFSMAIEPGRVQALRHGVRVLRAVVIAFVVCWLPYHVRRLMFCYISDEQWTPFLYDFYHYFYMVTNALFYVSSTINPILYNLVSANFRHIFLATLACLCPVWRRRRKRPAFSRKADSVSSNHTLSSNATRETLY
The test can be described thus: Flow cytometry (FACS) binding of anti-NTSR1 antibodies on A549 cells. As to conditions: for FACS binding (%, 1 μg/ml) / FACS binding (%, 10 μg/ml): A549 cells; for FACS binding (%, 1 μg/ml): antibody 1 μg/ml; for FACS binding (%, 10 μg/ml): antibody 10 μg/ml; for EC50: relative mean fluorescence intensity (MFI) on A549 cells; for binding affinity to cell surface NTSR1 compared with h7C3-1: FACS, h7C3-1 variants. The procedure:
A total of 1×10^6 cells were reacted with an anti-NTSR1 antibody in 100 μL of FACS buffer (PBS containing 0.5% BSA) for 60 minutes at 4° C. and washed two times to remove excess antibody. Secondary FITC (BD Pharmingen™) conjugated mouse anti-human IgG antibodies were incubated for an additional 60 minutes on ice. Cells were washed again and followed by an additional incubation with 1 ml PBS containing 0.5 mg/mL propidium iodide at 4° C. for 10 minutes. Data were collected on 10,000 living cells by FACS (Bio-Red S3e cell sorter). Fluorescence intensity from channel FL-1 was calculated with Flow Jo flow […] cytometry analysis software.
Background: Flow cytometry measures light scatter and fluorescence of single cells or particles in a stream.

Test [4] deals with cyclic ECL2 peptide of NTSR1. Nature of the test: NTSR1-binding affinity ELISA (alanine scanning variants). Particulars: for effect on h7C3 affinity (in words): compared with parental h7C3. Also on record: species or system human. As for the experimental part: The NTSR1-binding capacity of different antibodies were measured by ELISA. Briefly, NeutrAvidin 96-well plates (Pierce Cat:15128) were coated with cyL2-Biotin peptides at a final concentration of 5 μg/ml at […]. On the following day, the coating solution was removed, and the plates were blocked with 5% (v/v) non-fat dry milk in phosphate buffer saline (PBS) for 1 hour. After washing with PBST, gradient concentrations of anti-NTSR1 antibodies were added in triplicate. After 1 hour of incubation, the plate was washed three times with PBST, followed by the addition of horseradish peroxidase (HRP)-conjugated goat anti-human IgG Fc antibody (100 μL) into each well for an additional hour at RT. Finally, 100 μL of tetramethylbenzidine (TMB) substrate was added into each well to produce color for visualization. After 2 minutes of incubation, 100 μL of 2M H2SO4 was used to stop the reaction. The absorbance of each well was read at 450 nm with a plate reader. Flow cytometry
Sequence of cyclic ECL2 peptide of NTSR1 (P30989 206-234 limits assumed): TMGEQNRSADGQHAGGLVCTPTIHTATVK
(In general: An ELISA detects its analyte on a solid surface through an enzyme-linked reagent.)

Setting [5] is: alanine scanning of CDR L3 of h7C3-1.

Positions count from the first letter of the chain named. Names and notes keep the numbering of the source. Some results are limits rather than exact numbers.

B1: h7C3-5: humanized variant; heavy chain SEQ ID NO: 15, light chain SEQ ID NO: 16 (antibody, V domains shown)
VH: QVQLVQSGAEVKKPGASVKVSCKASGYAFTSSWIHWVRQAPGQRLEWMGQIRPNSGNTYYNEKFKVRVTITRDTSASTAYMELSSLRSEDTAVYYCARYHYGFDYWGQGTLVTVSS
VL: DIVMTQTPLSLSVTPGQPASISCRSSQSIVHSNGNTYLEWYLQKPGQSPQLLIYKVSNRFSGVPDRFSGSGSGTDFTLKISRVEAEDVGVYYCFQGAHLPWTFGGGTKVEIKR
modifications: VH SEQUENCE; VL SEQUENCE
In general, IC50 refers to the concentration that inhibits the measured activity by half. Take B1: the IC50 in test [1] and in test [2] was more than 500 nM in each case.

B2: h7C3-5-MMAE: h7C3-5 conjugated with MMAE via cleavable valine-citrulline linker, average 3.8-4 MMAE per antibody (conjugate)
VH: B1 VH
VL: B1 VL
modifications: non-natural residues
notes: h7C3-5 conjugated with MMAE via cleavable valine-citrulline linker, average 3.8-4 MMAE per antibody
With B2, the IC50 in test [1] is 33.1 ± 1.72 nM; in test [2], 56.5 ± 7.1 nM.

B3: 7C3: anti-human NTSR1 antibody with VH SEQ ID NO: 1 and VL SEQ ID NO: 2, full-length IgG with human IgG1 constant domains (antibody, V domains shown)
VH: QVQLQQPGSVLVRPGASVKLSCKASGYTFTSSWIHWAKQRPGQGLEWIGQIRPNSGNTYYNEKFKVKATLTVDTSSSTAYVDLSSLTSEDSAVYYCARYYYGFDYWGQGTLVTVSS
VL: DVLMTQTPLSLPVSLGDQASISCRSSQSIVHSNGNTYLEWYLQKPGQSPKLLIYKVSNRFSGVPDRFSGSGSGTDFTLKISRVEAEDLGVYYCFQGSHLPWTFGGGTKLEIKR
modifications: human IgG1 constant domains; VH SEQUENCE; VL SEQUENCE
Broadly, the EC50 is the concentration at which the effect is half-maximal. A lower EC50 goes with higher potency in that assay. Regarding B3, the “binding to A549 cells” value in test [3] (10 μg/ml, flow cytometry) is listed as “strong binding”. In test [3], the “FACS binding (%, 1 μg/ml)” value is given as 16.8%; the “FACS binding (%, 10 μg/ml)” value amounted to 83.2%; the half-maximal effective concentration (EC50) is 11.3 ± 2.8 µg/mL.

B4: P100A: h7C3-1 variant, P100A in CDR L3 (antibody, V domains shown)
VH: B3 VH with Y100H
VL: B3 VL with P100A
For B4, the “effect on h7C3-1 affinity for peptide (in words)” value (“effect on h7C3-1 affinity” below) in test [4] (setting [5]) is reported as “no effect”. Besides, in test [3], the “binding affinity to cell surface NTSR1 compared with h7C3-1” value (shortened to “binding affinity … compared with h7C3-1”) is “significantly diminished”.

B5: G96A: h7C3-1 variant, G96A in CDR L3 (antibody, V domains shown)
VH: B3 VH with Y100H
VL: B3 VL with G96A
Regarding B5, in test [4] (setting [5]), the “effect on h7C3-1 affinity” value is given as “no effect”. Also, the “binding affinity … compared with h7C3-1” value in test [3] is “significantly diminished”.

B6: D104A: h7C3 variant, D104A in CDR H3 (antibody, V domains shown)
VH: B3 VH with D104A
VL: B3 VL
For B6, the “effect on h7C3 affinity (in words)” value in test [4] is recorded as “no effect”.

B7: N54A: h7C3-2 variant, N54A in CDR H2 (antibody, V domains shown)
VH: B3 VH with N54A, Y100H
VL: B3 VL with S97A
Regarding B7, the “binding affinity to peptide compared with h7C3-2 (in words)” value in test [4] (h7C3-2 variants) is reported as “higher binding affinity”.

B8: h7C3-1: 7C3 variant bearing Y100H mutation in CDR H3 (antibody, V domains shown)
VH: B3 VH with Y100H
VL: B3 VL
For B8, the “effect on h7C3 affinity (in words)” value in test [4] is “higher affinity”. In test [3], the “FACS binding (%, 1 μg/ml)” value came out at 41%; the “FACS binding (%, 10 μg/ml)” value stood at 93.1%; the “EC50” value came to 7.6 ± 1.7 µg/mL.

B9: Y105A: h7C3 variant, Y105A in CDR H3 (antibody, V domains shown)
VH: B3 VH with Y105A
VL: B3 VL
On to B9, for which the “effect on h7C3 affinity (in words)” value in test [4] is “no effect”.

B10: L99A: h7C3-1 variant, L99A in CDR L3 (antibody, V domains shown)
VH: B3 VH with Y100H
VL: B3 VL with L99A
B10: the “decrease of h7C3-1 affinity” value in test [4] (setting [5]) was found to be 70%.

B11: H98A: h7C3-1 variant, H98A in CDR L3 (antibody, V domains shown)
VH: B3 VH with Y100H
VL: B3 VL with H98A
Turning to B11, the “effect on h7C3-1 affinity” value in test [4] (setting [5]) is on record as “no effect”. In addition, the “binding affinity … compared with h7C3-1” value in test [3] is listed as “slightly affects”.

B12: h7C3-2: 7C3 variant harboring Y100H mutation in CDR H3 and S97A mutation in CDR L3 (antibody, V domains shown)
VH: B3 VH with Y100H
VL: B3 VL with S97A
Regarding B12, the “effect on h7C3-1 affinity” value in test [4] (setting [5]) was “no effect”. In test [3], the “FACS binding (%, 1 μg/ml)” value amounted to 86.0%; the “FACS binding (%, 10 μg/ml)” value is recorded as 99.5%; the “binding affinity … compared with h7C3-1” value was “higher affinity”; the half-maximal effective concentration (EC50) was determined as 1.5 ± 0.5 µg/mL.
